Results as given in US20230070786A1 (SPIBER TECHNOLOGIES, published 2023).

Biological target: the molecule itself
Test: size exclusion chromatography, self-association
Protocol: The inventors designed a minispidroin composed of NT from E. australis MaSp1 and CT from A. ventricosus MiSp bracketing a short repetitive region from E. australis. The chimeric NT2RepCT protein was produced at unprecedented high levels in shake flask E. coli cultures and the yield after purification was around 125 mg protein/L cell culture. Nearly all protein was soluble after expression and lysis, and bound efficiently to the Ni-NTA column (FIG. 2A). The eluate contained >95% pure NT2RepCT and the size of the protein on the SDS PAGE gel corresponded well to the expected molecular mass (33 kDa) (FIG. 2A). Size-exclusion chromatography indicated a mass of 100 kDa (FIG. 6), in good agreement with a dimer (due to the constitutive dimeric nature of CT) and a non-globular structure of the repetitive part.
A Superdex 200 HR column (Amersham Biosciences) was used to run 200 μl of purifed protein sample in TBS running buffer (20 mM Iris, 150 mM NaCl and 1 mM EDTA, pH 8.0). The flow rate used was 0.5 ml/min. Molecular mass standards Ribonuclease A (13.7 kDa), Carbonic anhydrase (29 kDa), Ovalbumin (43 kDa), Conalbumin (75 kDa), Aldolase (158 kDa) and Ferritin (440 kDa) were used for calibration.

B1: NT2RepCT (other)
chain: MGHHHHHHMSHTTPWTNPGLAENFMNSFMQGLSSMPGFTASQLDDMSTIAQSMVQSIQSLAAQGRTSPNKLQALNMAFASSMAEIAASEEGGGSLSTKTSSIASAMSNAFLQTTGVVNQPFINEITQLVSMFAQAGMNDVSAGNSGRGQGGYGQGSGGNAAAAAAAAAAAAAAAGQGGQGGYGRQSQGAGSAAAAAAAAAAAAAAGSGQGGYGGQGQGGYGQSGNSVTSGGYGYGTSAAAGAGVAAGSYAGAVNRLSSAEAASRVSSNIAAIASGGASALPSVISNIYSGVVASGVSSNEALIQALLELLSALVHVLSSASIGNVSSVGVDSTLNVVQDSVGQYVG
notes: Engineered chimeric spidroin made in E. coli and tested with its His tag; also called chimeric minispidroin NT2RepCT; chimeric NT2RepCT protein
binding result: binds
